This test addresses T1, ngζ_1 toxin (zeta_1) of Neisseria gonorrhoeae, wild type (Neisseria gonorrhoeae, UniProt D5K9G7).
T1 sequence: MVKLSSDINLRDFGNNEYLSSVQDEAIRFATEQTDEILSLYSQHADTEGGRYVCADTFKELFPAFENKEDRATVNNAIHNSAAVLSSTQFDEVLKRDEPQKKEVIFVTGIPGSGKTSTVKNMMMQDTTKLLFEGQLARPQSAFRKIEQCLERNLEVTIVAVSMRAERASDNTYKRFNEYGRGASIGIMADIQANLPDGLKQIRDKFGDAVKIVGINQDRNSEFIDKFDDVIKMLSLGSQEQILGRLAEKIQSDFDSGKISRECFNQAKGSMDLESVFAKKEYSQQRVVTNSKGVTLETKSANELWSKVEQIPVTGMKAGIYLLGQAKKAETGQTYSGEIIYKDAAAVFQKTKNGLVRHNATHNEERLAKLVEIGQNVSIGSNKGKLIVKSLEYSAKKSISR
Description: crystal structure. Conditions: both partners purified.

B1: ngε_1 antitoxin (epsilon_1) of Neisseria gonorrhoeae (natural protein)
chain: MNKVEPQESNAIRMIKEACEKNRRMMTDEAFRKEVEKRLYAGPSPELLAKLRVLWAANKEQ
notes: also called ng_ɛ1; source: E. coli BL21(DE3)-RIL, purified as ngε_1/ngζ_1 complex (Ni-NTA, standard chromatographic procedures)
As for B1, the binding result is “binds”.
